From US20050282740A1
Read-outs that look alike come from different tables or passages of the source.

Legend:
[1] = target: proteins from 32P or 35S-labeled HeLa cell lysates; experiment: GST pull-down from labeled HeLa lysates pretreated with CIP, PP1 and PP2A
EQPLpTPVTDL = experiment: fluorescence anisotropy, GST-WW-domain on fluorescein-labelled peptide
WFYpSPFLE [2] = experiment: as above
WFYpSPFLE [3] = experiment: fluorescence anisotropy; low affinity site
WFYpSPFLE [4] = experiment: fluorescence anisotropy; high affinity site
[5] = target: tau peptide (pT-231), SEQ ID NO: 20; experiment: ELISA on tau peptide
[6] = target: tau peptide (pT-231), SEQ ID NO: 20; experiment: ELISA on tau peptides
[7] = target: tau peptide (pT-231), SEQ ID NO: 20; experiment: ELISA on tau peptides; remark: listed apart in the source
WFYpSPFLE [8] = experiment: fluorescence anisotropy with fluorescein labeled Pintide; high affinity site
[9] = target: Amyloid Precursor Protein Peptide … (pT-668); experiment: ELISA on amyloid precursor protein peptide; binder not labelled in the row, taken as Pin1
WFYpSPFLE [10] = experiment: fluorescence anisotropy; Table 2 prints 1.0 for this pair
[11] = target: tau peptide … (pT-231), SEQ ID NO: 29; experiment: ELISA on tau peptide
GST-Pin1 (human) = GST-Pin1 (human) (UniProt Q13526); experiment: competition with MPM-2 antigens for GST-Pin1, pull-down and MPM-2 immunoblot
[12] = target: GST-WW-domain of Pin1 (human) (UniProt Q13526); experiment: competition with MPM-2 antigens for GST-WW-domain of Pin1, pull-down and MPM-2 immunoblot

GST-Nedd4 WW-domain-1 (from UniProt P46935 249-282)
fold reduction of binding after pretreatment of lysates with Ser phosphatases [1]: 10 fold

GST-Nedd4 WW-domain-2 (from UniProt P46935 405-438)
Kd (EQPLpTPVTDL): 20000 nM
Kd (WFYpSPFLE [2]): 10000 nM
fold reduction of binding after pretreatment of lysates with Ser phosphatases [1]: 10 fold

GST-Pin1 (from UniProt Q13526 1-163) (enzyme)
Kd (WFYpSPFLE [3]): 13000 nM
Kd (WFYpSPFLE [4]): 1200 nM

GST-Pin1^R14A (from UniProt Q13526 1-163) (enzyme)
Kd (WFYpSPFLE [3]): 13500 nM
Kd (WFYpSPFLE [4]): 2000 nM

GST-Pin1^S16A (from UniProt Q13526 1-163) (enzyme)
Kd (WFYpSPFLE [3]): 10500 nM
Kd (WFYpSPFLE [4]): 1200 nM

GST-Pin1^S16E (from UniProt Q13526 1-163) (enzyme)
Kd (WFYpSPFLE [3]): 10500 nM

GST-Pin1^S18E (from UniProt Q13526 1-163) (enzyme)
Kd (WFYpSPFLE [3]): 12000 nM
Kd (WFYpSPFLE [4]): 1000 nM

GST-Pin1^W34A (from UniProt Q13526 1-163) (enzyme)
Kd (WFYpSPFLE [3]): 14000 nM

GST-Pin1^Y23A (from UniProt P08515 1-218; Q13526 1-163) (enzyme)
Kd (WFYpSPFLE [3]): 13500 nM

GST-WW-domain of Pin1 (from UniProt Q13526 1-54)
Kd (EQPLpTPVTDL): 2200 nM
Kd (WFYpSPFLE [2]): 1000 nM

Pin1 (from UniProt Q13526 1-163) (enzyme)
Binding (OD @ 405 nm) [5]: 1.46 OD 405 nm
Kd [6]: 25 nM
Kd [7]: 40 nM
Kd (WFYpSPFLE [3]): 11000 nM
Kd (WFYpSPFLE [4]): 1200 nM
Kd (WFYpSPFLE [8]): 1200 nM
Binding (OD @ 405 nm) [9]: 1.81 OD 405 nm

Pin1 PPIase domain (from UniProt Q13526 47-163) (enzyme)
Kd (WFYpSPFLE [3]): 15000 nM

Pin1 WW-domain (from UniProt Q13526 1-54)
Kd (WFYpSPFLE [4]): 1000 nM
Kd (WFYpSPFLE [10]): 1200 nM

Pin1^R14A (from UniProt Q13526 1-163) (enzyme)
Binding (OD @ 405 nm) [11]: 1.3 OD 405 nm
Kd (WFYpSPFLE [8]): 2000 nM

Pin1^S16A (from UniProt Q13526 1-163) (enzyme)
Kd (WFYpSPFLE [8]): 1200 nM

Pin1^Y23F (from UniProt Q13526 1-163) (enzyme)
Kd (WFYpSPFLE [8]): 5000 nM

Pintide (WFYpSPRLKK) (peptide)
peptide concentration at which significant competition was detected (GST-Pin1 (human)): 50 µM
peptide concentration of complete competition (GST-Pin1 (human)): 250 to 500 µM
peptide concentration at which significant competition was detected [12]: 50 µM
peptide concentration of complete competition [12]: 250 to 500 µM
